Experimental data published in US20090175866A1, “TREATMENT OF B-CELL MALIGNANCIES” (priority 2004, published 2009).
Where a chain is given by its changes, count along the chain named.

B1: PRO-029 (Fab, V domains shown)
VH: QVQLVQSGAEVKKPGASVKVSCKASGYTFTSYYMHWVRQAPGQGLEWMGWINPNSGGTNYAQKFQGRVTMTRDTSISTAYMELSSLRSEDTAVYYCARTWQYSYFYYLDGGYYFDIWGQGTLVTVSS
VL: DIVLTQSPATLSLSPGERATLSCRASQSVSSSYLAWYQQKPGQAPRLLIYGASSRATGVPARFSGSGSGTDFTLTISSLEPEDFATYYCQQTNNAPVTFGQGTKVEIKR
B2: PRO-026 (Fab, V domains shown)
VH: QVQLVQSGAEVKKPGASVKVSCKASGYTFTSYYMHWVRQAPGQGLEWMGWINPNSGGTNYAQKFQGRVTMTRDTSISTAYMELSSLRSEDTAVYYCARGYWYAYFTYINYGYFDNWGQGTLVTVSS
VL: DIALTQPASVSGSPGQSITISCTGTSSDVGGYNYVSWYQQHPGKAPKLMIYDVSNRPSGVSNRFSGSKSGNTASLTISGLQAEDEADYYCQSYDNNSDVVFGGGTKLTVLG
B3: PRO-055 (Fab, V domains shown)
VH: QVQLVQSGAEVKKPGASVKVSCKASGYTFTSYYMHWVRQAPGQGLEWMGWINPNSGGTNYAQKFQGRVTMTRDTSISTAYMELSSLRSEDTAVYYCARSMNSTMYWYLRRVLFDHWGQGTLVTVSS
VL: B2 VL with N95M, N96Y, S97N, D98Y, V99I
B4: PRO-054 (Fab, V domains shown)
VH: QVQLVQSGAEVKKPGASVKVSCKASGYTFTSYYMHWVRQAPGQGLEWMGWINPNSGGTNYAQKFQGRVTMTRDTSISTAYMELSSLRSEDTAVYYCARNMAYTNYQYVNMPHFDYWGQGTLVTVSS
VL: DIELTQPPSVSVAPGQTARISCSGDALGDKYASWYQQKPGQAPVLVIYDDSDRPSGIPERFSGSNSGNTATLTISGTQAEDEADYYCQSYDYFKLVFGGGTKLTVLG
B5: PRO-012 (Fab, V domains shown)
VH: QVQLKESGPALVKPTQTLTLTCTFSGFSLSTSGVGVGWIRQPPGKALEWLALIDWDDDKYYSTSLKTRLTISKDTSKNQVVLTMTNMDPVDTATYYCARYHSWYEMGYYGSTVGYMFDYWGQGTLVTVSS
VL: B4 VL with Y92F, F93D, K94F, L95A
B6: PRO-002 (Fab, V domains shown)
VH: QVQLVQSGAEVKKPGASVKVSCKASGYTFTSYYMHWVRQAPGQGLEWMGWINPNSGGTNYAQKFQGRVTMTRDTSISTAYMELSSLRSEDTAVYYCARDFLGYEFDYWGQGTLVTVSS
VL: DIELTQPPSVSVAPGQTARISCSGDALGDKYASWYQQKPGQAPVLVIYDDSDRPSGIPERFSGSNSGNTATLTISGTQAEDEADYYCQSYDYSADYVFGGGTKLTVLG
B7: PRO-001 Fab (Fab, V domains shown)
VH: QVQLQQSGPGLVKPSQTLSLTCAISGDSVSSNSAAWNWIRQSPGRGLEWLGRTYYRSKWYNDYAVSVKSRITINPDTSKNQFSLQLNSVTPEDTAVYYCARSYYPDFDYWGQGTLVTVSS
VL: DIELTQPPSVSVAPGQTARISCSGDALGDKYASWYQQKPGQAPVLVIYDDSDRPSGIPERFSGSNSGNTATLTISGTQAEDEADYYCQSYDGPDLWVFGGGTKLTVLGQ

molecular target: FGFR3 (as measured by BIAcore, Table 1) (UniProt P22607); assay: BIAcore (receptor not given)

koff	Binder
0.0014 s⁻¹	B1
0.0005 s⁻¹	B2
0.00074 s⁻¹	B3
0.002 s⁻¹	B4
0.0023 s⁻¹	B5
0.02 s⁻¹	B6

molecular target: FGFR3-G394D expressed on B9 cells, P22607; assay: cell-based or functional assay
Sequence (P22607 23-806, stated change not applied): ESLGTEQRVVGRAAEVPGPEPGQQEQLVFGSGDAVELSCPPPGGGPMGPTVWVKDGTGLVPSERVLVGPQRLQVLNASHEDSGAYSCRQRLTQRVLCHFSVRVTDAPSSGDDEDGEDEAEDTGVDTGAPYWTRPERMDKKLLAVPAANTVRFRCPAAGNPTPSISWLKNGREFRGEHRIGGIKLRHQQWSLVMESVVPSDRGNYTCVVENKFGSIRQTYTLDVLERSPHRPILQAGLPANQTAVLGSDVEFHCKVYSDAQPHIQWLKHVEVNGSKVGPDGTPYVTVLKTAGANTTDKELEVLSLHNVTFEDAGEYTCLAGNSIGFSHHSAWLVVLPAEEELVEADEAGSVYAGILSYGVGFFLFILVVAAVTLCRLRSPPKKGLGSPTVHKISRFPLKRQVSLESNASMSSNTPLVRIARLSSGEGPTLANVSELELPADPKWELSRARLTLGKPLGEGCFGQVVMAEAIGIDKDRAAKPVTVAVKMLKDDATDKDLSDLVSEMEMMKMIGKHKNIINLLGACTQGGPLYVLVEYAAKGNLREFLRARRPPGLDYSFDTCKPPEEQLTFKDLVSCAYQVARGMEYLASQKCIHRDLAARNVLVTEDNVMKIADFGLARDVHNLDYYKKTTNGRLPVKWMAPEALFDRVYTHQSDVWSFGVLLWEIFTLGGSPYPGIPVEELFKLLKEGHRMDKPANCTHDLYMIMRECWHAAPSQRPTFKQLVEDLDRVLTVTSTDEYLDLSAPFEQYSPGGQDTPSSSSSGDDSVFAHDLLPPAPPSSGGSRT

IC50 of FGF-stimulated growth of B9 cells expressing G394D-FGFR3	Binder
3 µg/mL	B7

molecular target: FGFR3 (as measured by BIAcore, Table 1) (UniProt P22607); assay: BIAcore

Kd	Binder
6 nM	B1
4 nM	B2
2.9 nM	B3
3.7 nM	B4
14 nM	B5
37 nM	B6
